Patent US20050054026A1

Target: 9-fluorenylmethyloxycarbonyl (Fmoc)-glycyl-prolyl-glutamyl-glycyl-isoleucyl-alanyl-glycyl-tryptophanyl-glycine (Gly-Pro-Gln-Gly-Ile-Ala-Gly-Trp-Gly) (Artificial Sequence)
Settings: scale: fold

Row | degradation rate of Fmoc-… per unit weight of enzyme and unit time (first 15 minutes, RP-HPLC) | Substance
1 | 14.2 | aminopeptidase-1 (enzyme)
2 | 38.8 | carboxypeptidase A (enzyme)
3 | 26.9 | collagenase (enzyme)
